Reference: publication PMC9482650, “Quantitative fragmentomics allow affinity mapping of interactomes” (Nature Communications, 2022)

T1: RAPGEF6, Q8TEU7
T1 sequence (Q8TEU7 525-625, limits assumed, looked up): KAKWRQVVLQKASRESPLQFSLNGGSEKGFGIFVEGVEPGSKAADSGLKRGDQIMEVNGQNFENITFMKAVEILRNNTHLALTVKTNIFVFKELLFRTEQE

T2: FRMPD1, Q5SYB0
T2 sequence (Q5SYB0 52-145, limits assumed, looked up): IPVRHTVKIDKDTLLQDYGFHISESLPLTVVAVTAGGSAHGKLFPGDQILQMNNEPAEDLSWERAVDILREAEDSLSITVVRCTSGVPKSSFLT

T3: PDZRN3_1, Q9UPQ7
T3 sequence (Q9UPQ7 244-349, limits assumed, looked up): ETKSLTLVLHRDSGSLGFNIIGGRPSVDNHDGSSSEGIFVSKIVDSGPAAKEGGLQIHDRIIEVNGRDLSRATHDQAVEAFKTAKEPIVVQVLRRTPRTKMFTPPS

T4: PTPN13_1, Q12923
T4 sequence (Q12923 1088-1188, limits assumed, looked up): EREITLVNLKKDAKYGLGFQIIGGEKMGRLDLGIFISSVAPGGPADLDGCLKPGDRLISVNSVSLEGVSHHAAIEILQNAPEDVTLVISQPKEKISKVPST

T5: DVL3, Q92997
T5 sequence (Q92997 244-331, limits assumed, looked up): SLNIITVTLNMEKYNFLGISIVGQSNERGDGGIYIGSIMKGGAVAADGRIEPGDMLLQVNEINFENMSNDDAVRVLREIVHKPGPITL

T6: CARD11, Q9BXL7
T6 sequence (Q9BXL7 662-765, limits assumed, looked up): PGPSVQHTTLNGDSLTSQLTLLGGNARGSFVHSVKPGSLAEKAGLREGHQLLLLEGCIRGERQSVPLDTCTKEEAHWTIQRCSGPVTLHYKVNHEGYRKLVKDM

T7: LNX2_2, Q8N448
T7 sequence (Q8N448 334-432, limits assumed, looked up): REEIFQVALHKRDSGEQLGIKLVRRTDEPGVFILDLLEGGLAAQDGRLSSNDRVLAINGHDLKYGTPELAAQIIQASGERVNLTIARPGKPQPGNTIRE

T8: LNX2_3, Q8N448
T8 sequence (Q8N448 463-564, limits assumed, looked up): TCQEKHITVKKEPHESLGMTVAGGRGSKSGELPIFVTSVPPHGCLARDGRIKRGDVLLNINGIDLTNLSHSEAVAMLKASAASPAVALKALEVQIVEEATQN

T9: PDZD2_2, O15018
T9 sequence (O15018 329-429, limits assumed, looked up): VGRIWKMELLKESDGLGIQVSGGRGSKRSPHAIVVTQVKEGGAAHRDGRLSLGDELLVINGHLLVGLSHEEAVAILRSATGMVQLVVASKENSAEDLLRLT

T10: ARHGEF11, O15085
T10 sequence (O15085 42-136, limits assumed, looked up): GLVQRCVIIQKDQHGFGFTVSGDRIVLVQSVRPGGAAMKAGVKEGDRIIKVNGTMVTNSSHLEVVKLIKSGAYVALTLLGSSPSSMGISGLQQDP

T11: HTRA4, P83105
T11 sequence (P83105 378-476, limits assumed, looked up): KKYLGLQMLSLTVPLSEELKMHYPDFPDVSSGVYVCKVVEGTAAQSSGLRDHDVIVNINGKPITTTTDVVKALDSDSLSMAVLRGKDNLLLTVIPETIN

T12: GRIP1_4, Q9Y3R0
T12 sequence (Q9Y3R0 467-571, limits assumed, looked up): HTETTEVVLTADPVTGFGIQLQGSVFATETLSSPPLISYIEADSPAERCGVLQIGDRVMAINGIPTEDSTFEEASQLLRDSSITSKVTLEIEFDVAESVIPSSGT


What was measured:
Test in all cases: holdup assay
Parameters in all cases: key: below the threshold = too weak to quantify, mostly under pKd 3.1 to 4
Conditions in all cases: plain residues with an end cap or a label only (N-terminal biotin on a linker: ado-ado)
SNX27, Q96L92 = biological target: SNX27, Q96L92
NHERF4_2, Q86UT5 = biological target: NHERF4_2, Q86UT5
Sequence of NHERF4_2, Q86UT5 (Q86UT5 220-308): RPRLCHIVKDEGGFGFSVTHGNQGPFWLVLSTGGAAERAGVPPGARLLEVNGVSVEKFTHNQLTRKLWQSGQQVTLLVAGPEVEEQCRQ

Inadl_3, Q8NI35 = biological target: Inadl_3, Q8NI35
Sequence of Inadl_3, Q8NI35 (Q8NI35 359-469): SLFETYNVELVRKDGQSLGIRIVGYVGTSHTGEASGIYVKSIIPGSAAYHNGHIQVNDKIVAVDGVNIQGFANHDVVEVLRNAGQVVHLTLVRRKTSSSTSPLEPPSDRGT

RAPGEF6, Q8TEU7 = biological target: T1, RAPGEF6, Q8TEU7
MAGI1_2, Q96QZ7 = biological target: MAGI1_2, Q96QZ7
Sequence of MAGI1_2, Q96QZ7 (Q96QZ7 456-580): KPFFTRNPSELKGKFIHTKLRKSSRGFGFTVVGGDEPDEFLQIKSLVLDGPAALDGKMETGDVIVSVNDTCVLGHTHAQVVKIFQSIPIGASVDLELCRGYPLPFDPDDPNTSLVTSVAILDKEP

FRMPD1, Q5SYB0 = biological target: T2, FRMPD1, Q5SYB0
PDZRN3_1, Q9UPQ7 = biological target: T3, PDZRN3_1, Q9UPQ7
LIMK2, P53671 = biological target: LIMK2, P53671
Sequence of LIMK2, P53671 (P53671 143-248): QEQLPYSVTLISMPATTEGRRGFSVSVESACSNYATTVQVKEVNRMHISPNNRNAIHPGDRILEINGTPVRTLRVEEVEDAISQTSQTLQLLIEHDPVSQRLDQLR

GRIP2_6, Q9C0E4 = biological target: GRIP2_6, Q9C0E4
Sequence of GRIP2_6, Q9C0E4 (Q9C0E4 648-740): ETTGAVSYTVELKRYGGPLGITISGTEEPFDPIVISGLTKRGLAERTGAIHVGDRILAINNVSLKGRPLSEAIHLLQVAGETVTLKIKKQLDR

GRIP2_3, Q9C0E4 = biological target: GRIP2_3, Q9C0E4
Sequence of GRIP2_3, Q9C0E4 (Q9C0E4 238-339): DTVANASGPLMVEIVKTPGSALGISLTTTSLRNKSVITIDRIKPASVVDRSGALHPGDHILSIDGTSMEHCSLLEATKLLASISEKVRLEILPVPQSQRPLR

PTPN13_1, Q12923 = biological target: T4, PTPN13_1, Q12923
LNX1_3, Q8TBB1 = biological target: LNX1_3, Q8TBB1
Sequence of LNX1_3, Q8TBB1 (Q8TBB1 500-596): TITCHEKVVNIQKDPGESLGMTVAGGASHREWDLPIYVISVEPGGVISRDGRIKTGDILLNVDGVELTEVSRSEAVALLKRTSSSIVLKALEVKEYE

DLG5_1, Q8TDM6 = biological target: DLG5_1, Q8TDM6
Sequence of DLG5_1, Q8TDM6 (Q8TDM6 617-713): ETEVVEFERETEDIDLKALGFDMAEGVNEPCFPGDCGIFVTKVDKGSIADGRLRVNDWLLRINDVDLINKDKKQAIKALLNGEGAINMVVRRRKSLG

DVL3, Q92997 = biological target: T5, DVL3, Q92997
GRID2IP_2, A4D2P6 = biological target: GRID2IP_2, A4D2P6
Sequence of GRID2IP_2, A4D2P6 (A4D2P6 272-370): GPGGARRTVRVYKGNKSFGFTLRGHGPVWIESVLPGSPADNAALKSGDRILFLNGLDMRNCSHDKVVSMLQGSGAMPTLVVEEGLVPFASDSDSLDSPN

CARD11, Q9BXL7 = biological target: T6, CARD11, Q9BXL7
MAGI2_5, Q86UL8 = biological target: MAGI2_5, Q86UL8
Sequence of MAGI2_5, Q86UL8 (Q86UL8 915-1017): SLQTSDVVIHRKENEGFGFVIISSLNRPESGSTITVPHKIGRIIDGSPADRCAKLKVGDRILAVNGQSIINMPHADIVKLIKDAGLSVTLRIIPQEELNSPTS

LNX2_2, Q8N448 = biological target: T7, LNX2_2, Q8N448
GORASP1, Q9BQQ3 = biological target: GORASP1, Q9BQQ3
Sequence of GORASP1, Q9BQQ3 (Q9BQQ3 1-208): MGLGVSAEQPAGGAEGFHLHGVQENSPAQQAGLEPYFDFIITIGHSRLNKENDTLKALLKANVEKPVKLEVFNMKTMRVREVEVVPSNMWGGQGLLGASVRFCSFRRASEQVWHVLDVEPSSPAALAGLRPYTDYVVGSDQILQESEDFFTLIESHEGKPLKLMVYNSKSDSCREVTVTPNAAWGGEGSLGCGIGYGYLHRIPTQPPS

LNX2_3, Q8N448 = biological target: T8, LNX2_3, Q8N448
PDZD2_2, O15018 = biological target: T9, PDZD2_2, O15018
ARHGEF11, O15085 = biological target: T10, ARHGEF11, O15085
PARD3_3, Q8TEW0 = biological target: PARD3_3, Q8TEW0
Sequence of PARD3_3, Q8TEW0 (Q8TEW0 582-685): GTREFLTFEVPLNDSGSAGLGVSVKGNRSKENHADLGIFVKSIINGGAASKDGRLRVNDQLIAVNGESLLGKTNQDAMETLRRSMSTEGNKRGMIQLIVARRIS

HTRA4, P83105 = biological target: T11, HTRA4, P83105
GRIP1_4, Q9Y3R0 = biological target: T12, GRIP1_4, Q9Y3R0
NOS1, P29475 = biological target: NOS1, P29475
Sequence of NOS1, P29475 (P29475 9-101): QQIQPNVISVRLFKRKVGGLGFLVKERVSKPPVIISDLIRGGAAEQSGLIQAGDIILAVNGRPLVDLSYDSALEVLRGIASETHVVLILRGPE

Binder	pKd (SNX27, Q96L92)	pKd (NHERF4_2, Q86UT5)	pKd (Inadl_3, Q8NI35)	pKd (RAPGEF6, Q8TEU7)	pKd (MAGI1_2, Q96QZ7)	pKd (FRMPD1, Q5SYB0)	pKd (PDZRN3_1, Q9UPQ7)	pKd (LIMK2, P53671)	pKd (GRIP2_6, Q9C0E4)	pKd (GRIP2_3, Q9C0E4)	pKd (PTPN13_1, Q12923)	pKd (LNX1_3, Q8TBB1)	pKd (DLG5_1, Q8TDM6)	pKd (DVL3, Q92997)	pKd (GRID2IP_2, A4D2P6)	pKd (CARD11, Q9BXL7)	pKd (MAGI2_5, Q86UL8)	pKd (LNX2_2, Q8N448)	pKd (GORASP1, Q9BQQ3)	pKd (LNX2_3, Q8N448)	also measured
GEDRSPPTAL [MKNK1, Q9BUB5]	below the threshold	below the threshold	below the threshold	below the threshold	below the threshold	below the threshold	below the threshold	below the threshold	below the threshold	below the threshold	below the threshold	below the threshold	below the threshold	below the threshold	below the threshold	below the threshold	below the threshold	below the threshold	below the threshold	below the threshold	pKd (PDZD2_2, O15018): below the threshold; pKd (ARHGEF11, O15085): 4.01; pKd (PARD3_3, Q8TEW0): below the threshold; pKd (HTRA4, P83105): 3.8; pKd (GRIP1_4, Q9Y3R0): below the threshold; pKd (NOS1, P29475): 3.8
SVTSERETNI [SLC16A7, O60669]	4.74	below the threshold	below the threshold	below the threshold	below the threshold	below the threshold	4	below the threshold	below the threshold	below the threshold	below the threshold	below the threshold	below the threshold	below the threshold	below the threshold	below the threshold	below the threshold	below the threshold	below the threshold	below the threshold	pKd (PDZD2_2, O15018): 4.65; pKd (ARHGEF11, O15085): below the threshold; pKd (PARD3_3, Q8TEW0): below the threshold; pKd (HTRA4, P83105): below the threshold; pKd (GRIP1_4, Q9Y3R0): below the threshold; pKd (NOS1, P29475): below the threshold
NNNVVKVDSV [MTNR1A, P48039]	below the threshold	below the threshold	below the threshold	below the threshold	below the threshold	below the threshold	below the threshold	below the threshold	below the threshold	below the threshold	below the threshold	below the threshold	below the threshold	below the threshold	below the threshold	below the threshold	below the threshold	below the threshold	below the threshold	below the threshold	pKd (PDZD2_2, O15018): 3.98; pKd (ARHGEF11, O15085): below the threshold; pKd (PARD3_3, Q8TEW0): below the threshold; pKd (HTRA4, P83105): 3.82; pKd (GRIP1_4, Q9Y3R0): below the threshold; pKd (NOS1, P29475): 3.86
LPAVCYDIDI [PTTG2, Q9NZH5]	below the threshold	below the threshold	4.63	below the threshold	below the threshold	below the threshold	below the threshold	below the threshold	4.68	below the threshold	below the threshold	below the threshold	below the threshold	below the threshold	below the threshold	below the threshold	below the threshold	3.83	3.89	below the threshold	pKd (PDZD2_2, O15018): 4.17; pKd (ARHGEF11, O15085): below the threshold; pKd (PARD3_3, Q8TEW0): 4.29; pKd (HTRA4, P83105): 3.96; pKd (GRIP1_4, Q9Y3R0): below the threshold; pKd (NOS1, P29475): below the threshold
